Experimental findings from publication PMC6050341, “Direct observation of DNA target searching and cleavage by CRISPR-Cas12a” are described below.

Substitutions are numbered along the chain they refer to.

In series [1] the target is T1, AsCas12a WT (Acidaminococcus sp., UniProt U2UMQ6 1-1307). Briefly: single-particle tracking (TIRF); 1D diffusion, then stable stall at target about 50 s; smFRET: 10 mM Tris-HCl pH 8.0, 100 mM NaCl (100 mM KCl in Figs 4, 5), 10 mM MgCl2, 1 mM DTT, oxygen scavenger, 37 C; SpCas9 in NEB buffer 3.
Series [2] deals with T1, AsCas12a WT. As to the kind of experiment: single-molecule FRET; 10 mM Mg2+; 20 nM RNP; transient S1 lifetime 0.13 +/- 0.01 s; stable stage II lifetime 94 s; smFRET: 10 mM Tris-HCl pH 8.0, 100 mM NaCl (100 mM KCl in Figs 4, 5), 10 mM MgCl2, 1 mM DTT, oxygen scavenger, 37 C; SpCas9 in NEB buffer 3.
In series [3] the target is T1, AsCas12a WT. As to the kind of experiment: single-molecule FRET; 5 nM AsCas12a, 10 nM crRNA; no stable binding, only short events; smFRET: 10 mM Tris-HCl pH 8.0, 100 mM NaCl (100 mM KCl in Figs 4, 5), 10 mM MgCl2, 1 mM DTT, oxygen scavenger, 37 C; SpCas9 in NEB buffer 3.
The target of series [4] is T1, AsCas12a WT. Briefly: single-molecule FRET; 10 mM Mg2+; 10 nM protein, 20 nM crRNA; smFRET: 10 mM Tris-HCl pH 8.0, 100 mM NaCl (100 mM KCl in Figs 4, 5), 10 mM MgCl2, 1 mM DTT, oxygen scavenger, 37 C; SpCas9 in NEB buffer 3.
Series [5] concerns the target T1, AsCas12a WT. As to the kind of experiment: single-particle tracking (TIRF); loose binding; drift rate rises with flow; smFRET: 10 mM Tris-HCl pH 8.0, 100 mM NaCl (100 mM KCl in Figs 4, 5), 10 mM MgCl2, 1 mM DTT, oxygen scavenger, 37 C; SpCas9 in NEB buffer 3.
The target in series [6] is T2, dAsCas12a (catalytically dead) (Acidaminococcus sp., UniProt U2UMQ6 1-1307, E993A). As to the kind of experiment: single-molecule FRET; 10 mM Mg2+; 100 mM KCl; no specific binding events (t < 30 ms); smFRET: 10 mM Tris-HCl pH 8.0, 100 mM NaCl (100 mM KCl in Figs 4, 5), 10 mM MgCl2, 1 mM DTT, oxygen scavenger, 37 C; SpCas9 in NEB buffer 3. Particulars: protein: recombinant; tags: His tag implied (pET28b, Ni-NTA); label: crRNA 3' Cy5; DNA Cy3, 5' biotin; DNA 5' overhang 2 nt.

The target of series [7] is T2, dAsCas12a (catalytically dead). Briefly: single-molecule FRET; 10 mM Mg2+; stable binding reached; smFRET: 10 mM Tris-HCl pH 8.0, 100 mM NaCl (100 mM KCl in Figs 4, 5), 10 mM MgCl2, 1 mM DTT, oxygen scavenger, 37 C; SpCas9 in NEB buffer 3. Particulars: protein: recombinant; tags: His tag implied (pET28b, Ni-NTA); label: crRNA 3' Cy5; DNA Cy3, 5' biotin; DNA 5' overhang 2 nt.

B1: 80% crRNA + 21 kb DNA (mixed)
RNA: AAUUUCUACUCUUGUAGAUACGGUCGAGCGUCAGCGUCCGGG
For the molecule B1, in series [1], the binding result was “binds”.

B2: DNMT1 crRNA + target DNA WT (Fig 2) (mixed)
RNA: AAUUUCUACUCUUGUAGAUCUGAUGGUCCAUGUCUGUUACUC
DNA 1: TTTTTTCACTTGACAGGCGAGTAACAGACATGGACCATCAGGAAACATTAACGTACT
DNA 2: AGTACGTTAATGTTTCCTGATGGTCCATGTCTGTTACTCGCCTGTCAAGTG
modifications: internal amino-dT for dye
As for B2, the binding result in series [2] was “binds”.

B3: DNMT1 crRNA + target w/o PAM (mixed)
RNA: B2 RNA
DNA 1: TTCACTTGACAGGCGAGTAACAGACATGGACCATCAGGAAGCATAAGCGTACT
DNA 2: B2 DNA 2 with T7C, A9T, T13C
On to B3, for which the binding result in series [3] is “no binding”.

B4: DNMT1 crRNA + target WT (Fig 5) (mixed)
RNA: B2 RNA
DNA 1: GGATCTCTTAAGTCGTTGAGTAACAGACATGGACCATCAGGAAACACAGTGCAGTATTAGCACTTTTT
DNA 2: GTGCTAATACTGCACTGTGTTTCCTGATGGTCCATGTCTGTTACTCAACGACTTAAGAGATCC
With B4, the binding result in series [4] is recorded as “binds”.

B5: DNMT1 crRNA + lambda DNA (mixed)
RNA: B2 RNA
For the molecule B5, in series [5], the binding result is “binds”.

B6: DNMT1 crRNA + 0 match DNA (mixed)
RNA: B2 RNA
DNA 1: TTCACTTGACAGGCACTCGTCTCAACGCACACTGATAGAAACATACACGTACT
DNA 2: AGTACGTGTATGTTTCTATCAGTGTGCGTTGAGACGAGTGCCTGTCAAGTG
For B6, in series [6], the binding result was “no binding”.

B7: DNMT1 crRNA + 17 match DNA (mixed)
RNA: B2 RNA
DNA 1: TTCACTTGACAGGCACTCGTCAGACATGGACCATCAGGAAACATTAACGTACT
DNA 2: B2 DNA 2 with T34A, T35C, A36G, C37A, T38G, C39T
As to B7, in series [7], the binding result is recorded as “binds”.
